Test results taken from patent US20140335096A1 (Eli Lilly, published 2014).

How the values were obtained:
glucagon (1-29) [1] = target: T1, glucagon (1-29) (Homo sapiens); assay: Biacore SPR, antibody captured by goat anti-mouse Fc, glucagon (1-29) as analyte; KD = koff/kon
T1 construct: Glucagon (1-29), Anaspec 22456, as analyte in Biacore; the listing names Homo sapiens; also called GCG; glucagon peptide
Experimental: (§1) Briefly described, the anti-glucagon monoclonal antibody IBA009 or IBA032, may be dissolved in HBS-EP buffer (150 mM sodium chloride, 3 mM EDTA, 0.005% (w/v) surfactant P-20, and 10 mM N-2-hydroxyethylpiperazine-N′-2-ethanesulfonic acid (HEPES) at pH 7.4; #BR-1001-88). Goat anti-mouse Fc antibody is immobilized on flow cells 1 to 4 of a CMS sensor chip at a level of 4000 response units (RUs) using amine coupling chemistry to capture anti-glucagon antibodies.
(§2) Binding may be evaluated using multiple analytical cycles. Each cycle is performed at a flow rate of 50 μl/minute, and may consist of the following steps: injection of about 10 μl of the anti-glucagon monoclonal antibody IBA009 or IBA032 at 10 μg/ml aiming at a capture of 40-100 RUs, injection of 250 μl of glucagon (1-29) (Anaspec 22456)—(starting at 100 nM and using two-fold serial dilutions for each cycle) followed by 20 minutes for dissociation, and regeneration using about 30 μl of 10 mM glycine hydrochloride, pH 1.5. Association and dissociation rates for each cycle may be evaluated using a “1:1 (Langmuir) binding” model in the BIAevaluation software 4.1.
(§3) The anti-glucagon monoclonal antibodies IBA009 and IBA032 may be tested for binding kinetics to glucagon.

glucagon (1-29) [2] = target: T1, glucagon (1-29); assay: Biacore SPR, antibody captured by goat anti-mouse Fc, glucagon (1-29) as analyte, 25 C, 1:1 Langmuir model
Experimental: as §1, §2, §3

glucagon (1-29) [3] = target: T1, glucagon (1-29); assay: affinity for glucagon against commercial antibody 2D3-2B11 (Sigma-Aldrich WH0002641M1); method of the reference value not stated
glucagon (1-29) [4] = target: T1, glucagon (1-29); assay: affinity for glucagon against commercial antibody K79bB10 (Sigma-Aldrich G2654); method of the reference value not stated

T1 sequence (peptide, as listed by the source): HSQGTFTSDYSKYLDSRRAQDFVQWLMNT

B1: anti-glucagon monoclonal antibody IBA009 (antibody, mouse IgG1, kappa, V domains shown)
VH: QVQLLQPGAELVKPGASVKLSCKASGYNFNDYWLNWVKQRPGQGLEWIGNAYPGWGIINYNEKFKSKVTLTVDTSSSTVYMQLSSLTSDDSAVYYCARDYDNAYWGQGTTVTVSS
VL: NIVMTQSPKSMSMSVGERVTLTCKASENAGTYVAWYQQKPEQSPKLLIYNGSHRYDGVPDRFTGSGSATDFTLTISSVQAEDLADYYCGQSYSYPWTFGGGTKLEMKR
notes: Captured through goat anti-mouse Fc in Biacore; biotin-labelled as capture antibody in the sandwich ELISA; also called capture antibody IBA009; anti-mid region antibody IBA009
Kd (glucagon (1-29) [1]): 0.73 pM | koff (glucagon (1-29) [2]): 1.1e-05 s⁻¹ | kon (glucagon (1-29) [2]): 1.5e+07 M⁻¹ s⁻¹ | fold stronger affinity than reference antibody 2D3-2B11 (glucagon (1-29) [3]): ~130 fold

B2: anti-glucagon monoclonal antibody IBA032 (antibody, mouse IgG1, kappa, V domains shown)
VH: QVQLQQSGAELVKPGASVKMSCKASGYNFTDYWIHWVKERPGQGLEWIGYFSTHSDYAIINQKFRDKATLTADKSSRLAYMQLSSLTSEDSAIYYCARGGLGLSYWGQGTTVTVSS
VL: DIVMTQAAPSVLVTPGESVSISCRSPKSLVGPMGRTYLYWFLQRPGQSPQLLIYRRNNLAPGVPDRFSGSGSGTAFTLRISRVEAEDVGIYYCMQHLEFPLTFGAGTKLEIKR
notes: Captured through goat anti-mouse Fc in Biacore; ruthenium-labelled as detection antibody in the sandwich ELISA; also called detection/conjugate antibody IBA032; anti-glucagon C-terminal antibody IBA032
Kd (glucagon (1-29) [1]): 8.7 pM | koff (glucagon (1-29) [2]): 0.00024 s⁻¹ | kon (glucagon (1-29) [2]): 2.7e+07 M⁻¹ s⁻¹ | fold stronger affinity than reference antibody K79bB10 (glucagon (1-29) [4]): ~800 fold
